Source: PMC7495412

Experiments:
Assay in all cases: co-IP
[1] = target: σ2-eGFP (AP2S1 with C-terminal eGFP) (UniProt P62744)
[2] = target: μ2-eGFP (rat AP2M1 with internal HA tag and eGFP) (rat) (UniProt P84092)
[3] = target: α-eGFP (hybrid mouse α-adaptin with eGFP inserted into the hinge region) (mouse) (UniProt P17427)

Sequence of UniProt P62744 (P62744 whole entry): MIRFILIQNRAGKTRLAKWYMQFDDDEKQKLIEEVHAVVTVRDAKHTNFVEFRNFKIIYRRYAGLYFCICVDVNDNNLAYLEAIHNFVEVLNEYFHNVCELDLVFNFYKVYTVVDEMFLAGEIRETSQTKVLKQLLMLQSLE
Sequence of UniProt P84092 (P84092 whole entry): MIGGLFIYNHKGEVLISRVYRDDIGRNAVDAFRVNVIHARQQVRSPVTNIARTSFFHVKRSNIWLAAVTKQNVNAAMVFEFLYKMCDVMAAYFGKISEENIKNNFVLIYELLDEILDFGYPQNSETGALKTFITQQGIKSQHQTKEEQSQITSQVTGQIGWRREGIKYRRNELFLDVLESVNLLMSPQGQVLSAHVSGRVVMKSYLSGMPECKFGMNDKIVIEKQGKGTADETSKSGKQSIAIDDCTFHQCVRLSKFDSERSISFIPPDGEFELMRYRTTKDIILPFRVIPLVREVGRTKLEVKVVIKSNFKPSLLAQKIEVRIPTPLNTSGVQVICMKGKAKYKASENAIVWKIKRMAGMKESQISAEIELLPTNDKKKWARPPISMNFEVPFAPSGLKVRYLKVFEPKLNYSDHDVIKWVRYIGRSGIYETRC

| Substance | percent of the endogenous subunit pulled down [1] [%] | percent of the endogenous subunit pulled down [2] [%] | percent of the endogenous subunit pulled down [3] [%] |
| --- | --- | --- | --- |
| endogenous α subunit of AP2 (α-adaptin) (from UniProt O94973 1-939) (natural protein) | 98.7 | 94.1 | – |
| endogenous σ2 subunit of AP2 (from UniProt P53680 1-142) (natural protein) | – | 68 | 78.8 |
| endogenous μ2 subunit of AP2 (from UniProt Q96CW1 1-435) (natural protein) | 79.5 | – | 99.3 |
